# Experimental data reported in patent publication US8273357B2, “Antigen-carbohydrate conjugates” (Massachusetts Institute of Technology, priority 2004, dated 2012).
# Experiments:
# [1] = system: OTI (CD8+) T cells in unfractionated splenocytes; assay: Antigen presentation assay (MHC class I), unfractionated OTI splenocytes, [3H]thymidine T cell proliferation; type: cell-based, mouse
# Description: FIGS. 3A and 3B are graphs showing that nonasaccharide 3-1-promoted presentation via MHC class I pathway for presentation to CD8^+ T cells. […] Unfractionated OTI splenocytes (3×10^5/well) were incubated with graded doses of OVA±(OVA)-3-1 (50 ng mL^−1) or (OVA)-3-1±(BSA)-3-1 (10 μg mL^−1). Incubations were performed for seventy-two hours with [^3H]thymidine (1 μCi) added for the last twelve hours. FIG. 3B is a graph showing that the monosaccharide mannose 3-6 targets a different receptor than 3-1. OTII splenocytes were incubated with graded doses of monosaccharide-modified OVA±(BSA)-3-1 and T cell proliferation was measured as described for FIG. 3A. Values present the mean of triplicate measurements.
# Accessing the transporter of antigenic peptides (TAP) and thereby achieving cross-presentation of antigen by dendritic cells to MHC class I restricted CD8+ T cells led to efficient stimulation of these T cells and, in the steady state, their apoptotic deletion from the T cell repertoire^3. To determine if the receptor promoting (OVA)-3-1 uptake can process proteins through the MHC class I pathway, (OVA)-3-1 and OVA were incubated with unfractionated splenocytes isolated from OTI (CD8^+) mice. The T cells from transgenic OTI mice recognized an eight amino acid residue sequence (SIINFEKL (SEQ ID NO: 14)) derived from OVA and were therefore utilized to gauge the efficiency of DC presentation of MHC class I antigenic peptides. A moderate (10-fold) increase in the efficiency of MHC class I presentation with (OVA)-3-1 as compared to OVA alone was observed (FIG. 3A).
# Pooled inguinal lymph nodes were dissociated in 10% Fetal Bovine Serum RPMI (supplemented with 2 mM L-glutamine) and either mechanically dissociated between two glass slides or, to improve the overall cell yield, incubated in the presence of collagenase (Boehringer) and EDTA for 25 minutes at 37° C./5% CO2 to dissociate DC-T cell clusters. For antigen presentation assays with whole splenocytes, isolated spleens were injected with collagenase/EDTA, gently teased apart and incubated as described above. […]
# [2] = system: CD8α+ and CD8α− dendritic cells; assay: Antigen presentation by sorted CD8α+ and CD8α− dendritic cell subsets to OTII T cells; type: cell-based, mouse; conditions: for presentation to OTII T cells by individual dendritic cell subsets: CD8α+ and CD8α− subsets
# Description: FIG. 5 is a graph showing that both dendritic cell subsets, i.e., cells that are CD8α+ and CD8α^−, can present (OVA)-301. CD11c+ dendritic cells were stained with antibody against CD8α and I-A^b MHC class H molecules and sorted into their respective CD8α+ and CD8α^− populations. 2×10^4 cells of each subtype were incubated with 1×10^5 purified OTII T cells with graded doses of OVA or (OVA)-3-1 for eighty-four hours with [^3H]thymidine (1 μCi) added for the last twelve hours. All data points were performed in triplicate.
# In the mouse, there are three subsets of dendritic cells, which are defined by their expression of the cellular antigens CD8 and CD4, namely CD8 α^+CD4^−, CD8α^−CD4^+, and CD8αCD4^14,15. Many functional differences among these subsets have been described and it has been argued that the CD8α^+ subset may be solely responsible for maintaining peripheral tolerance while the CD8α^− subset induces immunity to captured antigen^14 To determine if the high-mannose receptor was restricted to a particular subset, a fluorescence cell sorter was used to separate dendritic cells into their respective CD8α^+ and CD8α^− subsets. Each subset was then tested for its ability to present OVA and (OVA)-3-1 to OTII T cells (FIG. 5). […] Thus, both dendritic cell subsets expressed a receptor capable of binding nonasaccharide 3-1 and mediating uptake of antigens modified with this oligosaccharide.
# To obtain sufficient numbers of dendritic cells for antigen presentation and cytokine analysis, C57BL/6 mice were injected with a Flt3-ligand secreting tumor cell line to promote the expansion of dendritic cells. Fourteen days after this administration the mice were sacrificed and the spleens were isolated. Dendritic cells were purified from the spleens by positive selection with anti-CD11c microbeads as described above and stained with FITC-conjugated anti-1-A^b and cychrome-conjugated anti-CD8α. Cells were then sorted on a fluorescence-activated cell sorter, a MoFlo, (Dakocytomaton, Glostrup Denmark) into CD8α^+I-A^b+ and CD8α^−I-A^b+ populations. The purity of each subset was 80% with approximately 6% cross-contamination. Dendritic cells from each subset were used in antigen proliferation assays as described above (section 3.5.5).
Molecule,direct activation of OTI T cells ([1]; (OVA)-3-1 50 ng mL^−1 added to OVA),increase in the efficiency of MHC class I presentation as compared to OVA alone ([1]; OTI splenocytes),"presentation of antigenic peptides to CD8+ T cells ([1]; OTI splenocytes, graded doses)",presentation to OTII T cells by individual dendritic cell subsets [2],presentation to OTII T cells by individual dendritic cell subsets ([2]; listed as (OVA)-301),"efficiency of presentation by CD8α+ subset relative to CD8α− subset ([2]; sorted subsets, OTII T cells)"
"(OVA)-3-1: ovalbumin modified via SMCC with nonasaccharide 3-1, average of three saccharides per OVA (conjugate) GSIGAASMEFCFDVFKELKVHHANENIFYCPIAIMSALAMVYLGAKDSTRTQINKVVRFDKLPGFGDSIEAQCGTSVNVHSSLRDILNQITKPNDVYSFSLASRLYAEERYPILPEYLQCVKELYRGGLEPINFQTAADQARELINSWVESQTNGIIRNVLQPSSVDSQTAMVLVNAIVFKGLWEKAFKDEDTQAMPFRVTEQESKPVQMMYQIGLFRVASMASEKMKILELPFASGTMSMLVLLPDEVSGLEQLESIINFEKLTEWTSSNVMEERKIKVYLPRMKMEEKYNLTSVLMAMGITDVFSSSANLSGISSAESLKISQAVHAAHAEINEAGREVVGSAEAGVDAASVSEEFRADHPFLFCIKHIATNAVLFFGRCVSP",did not achieve this enhancement via direct activation of T cells,10 fold,enhanced presentation,presented by each subset,can present,approximately 2 fold
"ovalbumin (protein, UniProt P01012 2-386, looked up, model antigen, unmodified) Ovalbumin: GSIGAASMEFCFDVFKELKVHHANENIFYCPIAIMSALAMVYLGAKDSTRTQINKVVRFDKLPGFGDSIEAQCGTSVNVHSSLRDILNQITKPNDVYSFSLASRLYAEERYPILPEYLQCVKELYRGGLEPINFQTAADQARELINSWVESQTNGIIRNVLQPSSVDSQTAMVLVNAIVFKGLWEKAFKDEDTQAMPFRVTEQESKPVQMMYQIGLFRVASMASEKMKILELPFASGTMSMLVLLPDEVSGLEQLESIINFEKLTEWTSSNVMEERKIKVYLPRMKMEEKYNLTSVLMAMGITDVFSSSANLSGISSAESLKISQAVHAAHAEINEAGREVVGSAEAGVDAASVSEEFRADHPFLFCIKHIATNAVLFFGRCVSP",–,–,–,only weakly presented,–,–
